Test results from the nanobody polyreactivity screen of Harvey et al. (2022).

Assay: yeast display, Sf9 membrane polyspecificity reagent, FACS + sequencing; frameworks hold sequencing errors
Summary of the method: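 A synthetic nanobody library was expressed on Saccharomyces cerevisiae BJ5465 by galactose induction for 36–48 hours. The library was stained for 1 hour at 4 °C with 10% biotinylated, detergent-solubilized Sf9 membrane reagent and enriched with streptavidin microbeads before FACS. Low and high (top ~1%) gates were set on anti-HA fluorescence for expression and streptavidin fluorescence for reagent binding, and each polyreactivity label reflects the gate of origin.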

QVQLEESGGGLVQAGGSLRLSCAASGRIFGIYAMGWYRQAPGKERELVASITDGTITNYADSVKGRFTISRDNAKNTVYLQMNSLKPEDTAVYYCAAGTQAHAFVVRPIEMDYWGQGTQVTVSS
polyreactivity (PSR sort gate): low polyreactivity

QVQLEESGGGLVQAGGSLRLSCAASGRIFHKNAMGWYRQAPGKEREFVATISSRGGSTYYADSVKGRFTISRDNSKNTVYLQMNSLKPEDSAVYYCAAGWYRNDWGQRLHTYYYWGQGTQVTVSS
polyreactivity (PSR sort gate): high polyreactivity

QVQLEESGGGLVQAGGSLRLSCAASGRIFNENAMGWYRQAPGKERELVAAITQSGGSTYYADSVKGRFTISRDNAKNTVYLQMNSLKPEDTAVYYCAAGDAYYTEALPFGEYDYWGQGTQVTVSS
polyreactivity (PSR sort gate): low polyreactivity

QVQLEESGGGLVQAGGSLRLSCAASGRIFPINTMGWYRQAPGKERELVAAISSNGGRTYYADSVKGRFTISRDNAKNTVYLQMNSLKPEDTAVYYCAADAGYYWPGYYYWGQGTQVTVSS
polyreactivity (PSR sort gate): high polyreactivity

QVQLEESGGGLVQAGGSLRLSCAASGRIFSGNAKGWYRQAPGKERELVANITSSSNTNYADSVKGRFTISRDNAKNTVYLQMNSLKPEDTAVYYCAKSAHNGYSFYGYDYWGQGTQVTVSS
polyreactivity (PSR sort gate): low polyreactivity

QVQLEESGGGLVQAGGSLRLSCAASGRIFSYNVMGWYRQAPGKEREFVAAITSNDGSTYYADSVKGRFTISRDNAKNTVYLQMNSLKPEDTAVYYCNADFGPVSLKEPFRDDYWGQGTQVNVSS
polyreactivity (PSR sort gate): low polyreactivity

QVQLEESGGGLVQAGGSLRLSCAASGRIFTANAMGWYRQAPGKERELVASISYRSGRTRYADSVKGRFTISRDNAKNTVYLQMNSLKPEDTAVYYCATDRGRRYDYWGQGTQVTVSS
polyreactivity (PSR sort gate): high polyreactivity

QVQLEESGGGLVQAGGSLRLSCAASGRIFVFYDMGWYRQAPGKERELVATITRSGGRTYYADSVKGRFTISRDNAKNTVYLQMNSLKPEDTAVYYCAARRYGKYDYWGQGTQVTVSS
polyreactivity (PSR sort gate): low polyreactivity

QVQLEESGGGLVQAGGSLRLSCAASGRIFVSNDMGWYRQAPGKERELVAAITWSDDSTHYADSVKGRFTISRDYAKNTVYLQRNSVKPEDTAVYYCNKQRYYSTWRYDYWGQGTQVTVSS
polyreactivity (PSR sort gate): low polyreactivity

QVQLEESGGGLVQAGGSLRLSCAASGRIFWVNVMGWYRQAPGKERELVAAITRGASTYADSVKGRFTISRDNAKNTVYLQLNSLKPEDTAVYYCAVGISDFQYYDYVYWGQGTHVTVSS
polyreactivity (PSR sort gate): high polyreactivity

QVQLEESGGGLVQAGGSLRLSCAASGRIFYGYAMGWSRQAPGKERELVASISRRGSSTYYADSVKGRFTISRDNAKNTVYLQMNSLKPEDTAVYYCAAGYYPFNYWGQGTQVTVSS
polyreactivity (PSR sort gate): high polyreactivity

QVQLEESGGGLVQAGGSLRLSCAASGRIIYSNGMGWYRQAPGKERELVAAISSGGSTYYADSVKGRFTISRDNAKNTVYLQMNSLKPEDTAVYYCAADIDYERDRYDYWGQGTQVTVSS
polyreactivity (PSR sort gate): low polyreactivity

QVQLEESGGGLVQAGGSLRLSCAASGRISAKYAMGWYRKAPGKERELVASISWSGGSTYYADSVKGRFTISRDNAKNTVYLQMNSLKPEDTAVYYCAADLTQQRGVRGMDYWGQGTQVTVSS
polyreactivity (PSR sort gate): low polyreactivity

QVQLEESGGGLVQAGGSLRLSCAASGRTFAFNAMGWYRPAPGKVRELVAVITSRTTRTYYADSVKGRFTISRDNAKNTVYLQMNSLKPEDTAVYYCAAGFRRQSIRFDYWGQGTQVTVSS
polyreactivity (PSR sort gate): high polyreactivity

QVQLEESGGGLVQAGGSLRLSCAASGRTFDVYAMGWYRQAPGKEREFVAAINWSSSSTYYADSVKGRFTISRDNAKNTVYLQMNSLKPEDTAVYYCAARYKRYTRFDYWGQGTQVTVSS
polyreactivity (PSR sort gate): high polyreactivity

QVQLEESGGGLVQAGGSLRLSCAASGRTFKYYAMGWYIQAPGKERELVAAISWSGGDTYYADSVKGRFTISRDNAKNTVYLQMNSLKQEDTAVYYCAKYPWYRYPSYEYWGQGTQVTVSS
polyreactivity (PSR sort gate): high polyreactivity

QVQLEESGGGLVQAGGSLRLSCAASGRTFRINDMGWYRQAPGKERELVATINSTGSTNYADSVKGRFTISRDNAKNTVYLQMNSLKPEDTAVYYCNAYLYYYRYHYNYWGQGTQVTVSS
polyreactivity (PSR sort gate): low polyreactivity
